From article PMC9774334 come the findings set out here.

Substrate in series [1]: C[C@@H]1O[C@@H](Oc2ccc([N+](=O)[O-])cc2)[C@@H](O)[C@H](O)[C@@H]1O
The series is described as follows: purified protein. The settings on record: McIlvaine buffer pH 5.5, 35 °C.

Substrate in series [2]: O=[N+]([O-])c1ccc(O[C@@H]2O[C@@H](CO)[C@H](O)[C@@H](O)[C@@H]2O)cc1
The series is described as follows: purified protein. The conditions noted are these: McIlvaine buffer pH 5.5, 35 °C.

The Km is the concentration of substrate that gives half-maximal velocity. In general, kcat refers to the maximal rate divided by the concentration of active sites. One may read the kcat/Km as the second-order rate constant that governs catalysis at low substrate concentration.

B1: ClAgl29A (Cecembia lonarensis LW9) (protein)
chain: QVQYNPEKPARPEDHKPFFYKYNTRQLYEKFSDDLMQRAANDRKEIEKINQLGKYKPKKQSLDEHEVPEWFRDAKLGIFLDWGPWSVPGYAPPGSEGDTGGSYPDWYEFLMDFTYKAYHDSIWGEDFRRDDFLPLLHGNNFDSEEYAELAVQAGAKYMVPFARHHAGWTMWESKYTFRNAVEMGPKRDILKELVEASRKRDLKFGFYFSIAEWEYPVITKERVSQWDPYEDMAIFHDGMGLIPRPVPLASYFPARHDRMISGKIPVKDYFGDYMMPLFKEGVDLFDPDLVWYDGGWGTPANSSRVPELSAYFYNQAEGRKEVVINNRAGAYLDDSNLLKFNEVLKSGEHDKLLELYMKAEQIGDYLTPEYSIGNVDINEPWEVCRSISPAFGFNWTDNEENSLSSKELVKMFVGIVANNGNLLLVINPDGSGKLSNVQKDRLLDLGQWLKVNGEGIYSTRPWEIQESEGNFFTKSKNGEFIYIHILDKEKTTIEVPNLNPKNKGAISILGSKEKVLWENSGPITRITIPESFKDERNWPNKYGFTLKVAVK
Regarding B1, in “purified protein [1]”, the Km stood at 279 ± 5 µM, the kcat was found to be 0.0658 ± 0.0008 s⁻¹ and the kcat/Km stood at 236 ± 5 M⁻¹ s⁻¹. In addition, in “purified protein [2]”, the Km amounted to 2010 ± 260 µM, the kcat worked out at 2 ± 0.11 s⁻¹ and the kcat/Km came out at 1000 ± 80 M⁻¹ s⁻¹.

B2: ClAgl29B (Cecembia lonarensis LW9) (protein)
chain: QENKEKDRTPSSKHLTDNILQPKRSSDFMAFKYEYSTVDLYREFSESIMDKARSEVEILESVNRQGRYKPNVESLKLHEVPEWFEDAKLGIFLDWGPWSVPGYAPLKGAEASTGGSYPDWYEFLMDNLYKEYHDEVWGADFRRDDFLPLLTGENFNSEEYMLLAVNSGAKYFVPFTKHHAGWTMWESEFTKRNAVEMGPGRDIYKELIEAGKKYDMKMGFYFSVSEWEYPVIVDQNLSQWDPVKNLAIFQDALGQIPRATPLASYFPALHDRMISGKIPVKDYFADYMIPSFKEAVDKYDPDLVWYDGGWGSPVSISRTMETSAYFYNQAEGKKDVVINNRAGSSLSEDDLIKVRDLMDSGKRDEAMKIYLSGQQLGDYGTPEFTIGDVDIQSKWEVCRSISPAFGYNWQDDEASSLSGEELIKLFVDIVANNGNLLLVISPDGSGKLPDIQKDRLLELGDWMKVNAESIHNTRPWKVQKENDKFFTKSKDGKSLFVHCTNWPGENLIINTPIEEGIKGIKLLGSDINLQFTKASNGNLEIPIPKDFQNNPSLISKYVWTFKIDLN
Take B2: in the series “purified protein [1]”, the Km was 240 ± 11 µM, the kcat was found to be 0.0844 ± 0.0019 s⁻¹ and the kcat/Km stood at 352 ± 7 M⁻¹ s⁻¹. Moreover, in the series “purified protein [2]”, the Km came to 1790 ± 180 µM, the catalytic constant (kcat) was determined as 7.76 ± 0.41 s⁻¹ and the kcat/Km is 4340 ± 220 M⁻¹ s⁻¹.
